Measurements taken from patent US20240026019A1 (Innovent, published 2024).
Positions count from the first letter of the chain named.

T1: human TNFR2 overexpressed on CHO-S cells (CHOS-hTNFR2) (human, UniProt P20333 23-461)
T1 construct: also called hTNFR2 CHO-S; human TNFR2 molecule overexpressed on CHO-S cells
T1 sequence: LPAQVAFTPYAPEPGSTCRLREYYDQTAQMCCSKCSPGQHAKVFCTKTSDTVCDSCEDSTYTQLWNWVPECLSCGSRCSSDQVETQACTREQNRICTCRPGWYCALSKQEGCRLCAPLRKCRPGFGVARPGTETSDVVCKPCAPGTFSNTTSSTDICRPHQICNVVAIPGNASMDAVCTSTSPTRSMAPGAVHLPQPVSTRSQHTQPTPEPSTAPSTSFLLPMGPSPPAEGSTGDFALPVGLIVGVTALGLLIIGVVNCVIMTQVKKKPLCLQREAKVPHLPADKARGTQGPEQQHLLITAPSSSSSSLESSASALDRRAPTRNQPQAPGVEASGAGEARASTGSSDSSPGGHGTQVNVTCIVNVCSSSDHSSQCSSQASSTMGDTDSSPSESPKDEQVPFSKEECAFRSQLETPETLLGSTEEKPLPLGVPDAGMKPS

T2: hTNFR2 protein (coated on the microplate in the blocking ELISA) (human, UniProt P20333 23-257)
T2 construct: The construct coated in the ELISA is not described (it may or may not be the immunogen, Sino biological 10417-H03H)
T2 sequence (looked up): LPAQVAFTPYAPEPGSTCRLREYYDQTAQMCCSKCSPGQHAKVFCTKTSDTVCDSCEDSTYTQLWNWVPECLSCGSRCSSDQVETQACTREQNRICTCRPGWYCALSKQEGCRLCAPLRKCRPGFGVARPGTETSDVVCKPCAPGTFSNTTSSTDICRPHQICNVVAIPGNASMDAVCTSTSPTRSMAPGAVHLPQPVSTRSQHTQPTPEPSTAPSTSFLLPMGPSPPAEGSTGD

T3: TNFR2 on human K562 chronic myeloid leukemia cells and on primary human Treg cells (human, UniProt P20333 23-461)
T3 construct: whole, on cells; also called K562 cells
T3 sequence (looked up): T1 sequence

B1: hybridoma antibody 3C4 (antibody, V domains shown)
VH: QVQLQQSGPELVKPGASVTISCKASDYSFTNYYIHWVKQRPGQGLEWIGWIYPGNVITKYHEKFKGKAILTADTSSTTAYMQLNSLTSEDSAVYFCARSRATGYFDYWGQGTTLTVSS
VL: DIQMTQTTSSLSASLGDRVTISCRASQDIRNYLNWFQQKPDGTIKLLIYYTSRLHSGVPSRFSGSGSGTDYSLTISNLEQEDMATYFCQQFNTLPWTFGGGTKLEIK
notes: Murine antibody from the hybridoma (detected with anti-mouse IgG)
B2: humanized antibody hz3C4.7 (antibody, human IgG1, kappa, V domains shown)
VH: QVQLVQSGAEVKKPGASVKVSCKASDYSFTNYYIHWVRQAPGQGLEWMGWIYPGNVITKYHEKFKGRVTMTADTSTSTAYMELSSLRSEDTAVYYCARSRATGYFDYWGQGTLVTVSS
VL: DIQMTQSPSSLSASVGDRVTITCRASQDIRNYLNWYQQKPGKAPKLLIYYTSRLHSGVPSRFSGSGSGTDYTLTISSLQPEDFATYYCQQFNTLPWTFGGGTKVEIKR
B3: humanized antibody hz69B1.5 (antibody, human IgG1, kappa, V domains shown)
VH: QIQLVQSGSELKKPGASVKVSCKASGYTFTDYSMNWVRQAPGQGLEWMGWLNTETGEPIYADDFKGRFVFSLDTSVSTAYLQISSLKAEDTAVYFCAREAIYYGTSYVLDYWGQGTLVTVSS
VL: DIVLTQSPASLAVSPGQRATITCRASESVEYYGTNFMQWYQQKPGQPPKLLIYSASNVESGVPARFSGSGSGTDFTLTINPVEANDTANYYCQQSRKDPSTFGQGTKLEIKR
B4: humanized antibody hz69B1.6 (antibody, human IgG1, kappa, V domains shown)
VH: QVQLVQSGAEVKKPGASVKVSCKASGYTFTDYSMNWVRQAPGQRLEWMGWLNTETGEPIYADDFKGRVTITRDTSASTAYMELSSLRSEDTAVYYCAREAIYYGTSYVLDYWGQGTLVTVSS
VL: B3 VL with Y91F
B5: humanized antibody hz69B1.20 (antibody, human IgG1, kappa, V domains shown)
VH: B3 VH
VL: B3 VL with N85Q, Y91F
B6: humanized antibody hz69B1.11 (antibody, human IgG1, kappa, V domains shown)
VH: B4 VH
VL: B3 VL with N85Q, Y91F

Legend:
[1] = target: TNFR2 on human K562 chronic myeloid leukemia cells and on primary human Treg cells (human) (UniProt P20333); experiment: flow cytometry on human K562 CML cells (negative control), MFI(FL2); unit taken from the axis Conc log(nM); the curve stays near the baseline and the value lies beyond the highest concentration shown
[2] = target: human TNFR2 overexpressed on CHO-S cells (CHOS-hTNFR2) (human) (UniProt P20333); experiment: flow cytometry on CHO-S cells overexpressing human TNFR2 (negative control), MFI-FL2-A; unit taken from the axis Conc log(nM); the curve is flat, so the fit is ambiguous
[3] = target: cynomolgus monkey TNFR2 overexpressed on CHO-S cells (CHOS-cTNFR2) (cynomolgus monkey); experiment: flow cytometry on CHO-S cells overexpressing cynomolgus monkey TNFR2 (negative control), MFI-FL2-A; unit taken from the axis Conc log(nM); the curve stays near the baseline
[4] = target: T1, human TNFR2 overexpressed on CHO-S …; experiment: flow cytometry on CHO-S cells overexpressing human TNFR2 (hybridoma antibodies), MFI
Protocol: In the study, the binding of the hybridoma antibodies (3C4, 69B1, and 72G8) of the present invention, after being diluted in a gradient, to a stable CHO-S cell strain overexpressing human TNFR2 on the surface was assayed by using a flow cytometer.
CHOS-hTNFR2 cells or CHOS-cTNFR2 cells were counted and diluted to 2×10⁶ cells/mL, and added to a U-bottom 96-well plate at 100 μL/well. The mixture was centrifuged at 300 g for 5 min, and the cell medium was removed. The dilutions of the samples (the hybridoma antibodies 3C4, 69B1, and 72G8 and the positive control antibody OPI) (the antibodies were subjected to a two-fold serial dilution in PBS from the maximum antibody concentration of 300 nM) were added to the U-plate, and the cells were resuspended at 100 μL/well and left to stand on ice for 30 min. The suspension was centrifuged at 400 g for 5 min, and the supernatant was removed. The cells were washed twice with PBS. The mixture was centrifuged at 300 g for 5 min, and PBS was removed. […] The mixture was centrifuged at 400 g for 5 min, and the supernatant was removed. The cells were washed 3 times with PBS. The cells were resuspended in 200 μL of 1×PBS and assayed by FACS.

[5] = target: T2, hTNFR2 protein (coated on the …); experiment: blocking ELISA: hTNFR2 coated on the plate, binding of biotinylated TNFα blocked by the antibody, Avidin-HRP
Protocol: The ability of the hybridoma antibodies 3C4, 69B1, and 72G8 and the control antibody OPI to block the binding of human TNFα to hTNFR2 was assayed by ELISA.
(§1) The hTNFR2 protein was resuspended and dissolved to a concentration of 2 μg/mL with PBS, and a microplate was coated with the protein and incubated overnight. The plate was blocked with 5% BSA for 1 h, and a biotinylated antigen (Recombinant Biotinylated TNFα protein (ACRO)) was diluted to 3 μg/mL and added to the plate at 20 μL/well. The antibodies prepared as described above (3C4, 69B1, and 72G8) were each diluted in a gradient starting from the maximum concentration of 300 nM for a total of 8 or 12 dilution gradients. The diluted antibodies were added at 200 μL/well and incubated in PBS on ice for 30 min. The antigen-antibody mixture was incubated in a microplate for 90 min and washed three times with PBS, and the supernatant was discarded. 100 μL of Avidin-HRP (Invitrogen) diluted at a 1:5000 ratio was added to each well, incubated at room temperature for 30 min, and washed six times with PBS. A TMB chromogenic solution (solarbio) was added to the plate at 100 μL/well for color development for 1 min, and the reaction was stopped by adding a stop buffer (solarbio) at 100 μL/well. The plate was read on a microplate reader at OD₄₅₀ and OD₆₂₀.

[6] = target: T3, TNFR2 on human K562 chronic myeloid …; experiment: flow cytometry on human K562 CML cells, MFI(FL2); unit taken from the axis Conc log(nM)
Protocol: (§2) Assay steps: The mixture was centrifuged at 400 g for 5 min, and the cell medium was removed. K562 or Treg cells were resuspended in PBS. After counting, the cells were adjusted to a density of 2×10⁶/mL, and the cell suspension was added to a U-bottom 96-well plate at 100 μL/well. The test antibody was added, subjected to a three-fold gradient dilution, and left to stand on ice for 30 min. The mixture was centrifuged at 300 g for 5 min, and the supernatant was removed. The cells were washed once with PBS. The mixture was centrifuged at 300 g for 5 min, and PBS was removed. 100 μL of PE-anti-human Fc antibody (SOUTHERN BIOTECH, 2040-09) diluted at a ratio of 1:200 was added to each well. The mixture was incubated on ice for 30 min in the dark. The mixture was centrifuged at 400 g for 5 min, and the supernatant was removed. The cells were washed twice with PBS. The cells were resuspended in 100 μL of PBS and assayed by using a flow cytometer (BD, ACCURIC6 plus).

[7] = target: T3, TNFR2 on human K562 chronic myeloid …; experiment: flow cytometry on primary human Treg cells, MFI(FL2); unit taken from the axis Conc log(nM)
Protocol: Tregs were prepared as follows: Human PBMC cells ([…], PB005F) were thawed, CD4⁺ CD25⁺ CD127^low cells were sorted by flow cytometry, and Treg cells were isolated. According to CD4⁺:anti-CD3/CD28 Beads=1:1, Dynabeads Human T-Activator CD3/CD28 (Gibco, 11131D) was added, followed by 10 ng/mL recombinant IL2, and the cells were stimulated for 7 days.
as §2

[8] = target: T2, hTNFR2 protein (coated on the …); experiment: blocking ELISA: hTNFR2 coated on the plate, binding of biotinylated TNFα blocked by the antibody; unit taken from the axis Conc log(nM) [A]
Protocol: as §1, with “to 2” for “to 3”, “at 10” for “at 20”, “at 100” for “at 200”
In a similar manner to that in Example 7, the ability of the humanized antibodies hz3C4.7, hz69b1.5, hz69b1.6, hz69b1.11, and hz69b1.20, and the control antibody OPI to block the binding of human TNFα to hTNFR2 was assayed by ELISA.

[9] = target: T1, human TNFR2 overexpressed on CHO-S …; experiment: flow cytometry on CHO-S cells overexpressing human TNFR2 (humanized antibodies), MFI-FL2A; unit taken from the axis Conc log(nM)
Protocol: In the study, the binding of the antibodies, after being diluted in a gradient, to a stable CHO-S strain line overexpressing human TNFR2 on the surface was assayed by using a flow cytometer.
CHOS-hTNFR2 cells were counted and diluted to 2×10⁶ cells/mL, and added to a U-bottom 96-well plate at 100 μL/well. The mixture was centrifuged at 300 g for 5 min, and the cell medium was removed. Samples (the humanized antibodies hz3C4.7, hz69B1.5, hz69B1.6, hz69B1.11 and hz69B1.20, the chimeric antibody 69B1, and the positive control antibody OPI) (the antibodies were subjected to a three-fold dilution in PBS from the maximum antibody concentration of 300 nM) were added to the U-plate, and the cells were resuspended at 100 μL/well and left to stand on ice for 30 min. The suspension was centrifuged at 400 g for 5 min, and the supernatant was removed. The cells were washed twice with PBS. The mixture was centrifuged at 300 g for 5 min, and PBS was removed. 100 μL of anti-human Fc PE-labeled secondary antibody (SoutherBiotech; 2040-09) (diluted at a 1:100 ratio in PBS) was added to each well and incubated on ice for 30 min in the dark. The mixture was centrifuged at 400 g for 5 min, and the supernatant was removed. The cells were washed 3 times with PBS. The cells were resuspended in 200 μL of 1×PBS and assayed by FACS.

Row | Molecule | EC50 [6] [nM] | EC50 [7] [nM] | EC50 [9] [µM] | other results
1 | IgG (antibody) | – | – | – | EC50 [1]: 0.0223 µM; EC50 [2]: 13500 µM; EC50 [3]: 0.00112 µM
2 | B1 | – | – | – | EC50 (read off the curve) [4]: ~0.002 µM; IC50 (read off the curve) [5]: ~0.005 µM
3 | B2 | 0.0356 | 0.0599 | 0.000207 | IC50 [8]: 0.03 µM
4 | B3 | 0.0613 | 0.0239 | 0.000424 | –
5 | B4 | – | – | 0.000357 | –
6 | B5 | 0.0549 | 0.0299 | 0.00042 | –
7 | B6 | 0.0446 | 0.0243 | 0.00036 | –
